Laboratory results taken from US20210388105A1 (ELPISCIENCE SUZHOU BIOPHARMA, published 2021).
Substitutions are numbered along the chain they refer to. Values belong to the binder of their own block, whether it stands above or below them.

Key:
[1] = biological target: T1, human CD39 (full length, on cells) (human, UniProt P49961 1-510); experiment: FACS, SK-MEL-28 cells
T1 construct: Recombinant on CHOK1-hCD39 cells or natural on SK-MEL-28, SK-MEL-5 and MOLP-8 cells; the cell line is named under assay; also called hCD39; ENTPD1
T1 sequence: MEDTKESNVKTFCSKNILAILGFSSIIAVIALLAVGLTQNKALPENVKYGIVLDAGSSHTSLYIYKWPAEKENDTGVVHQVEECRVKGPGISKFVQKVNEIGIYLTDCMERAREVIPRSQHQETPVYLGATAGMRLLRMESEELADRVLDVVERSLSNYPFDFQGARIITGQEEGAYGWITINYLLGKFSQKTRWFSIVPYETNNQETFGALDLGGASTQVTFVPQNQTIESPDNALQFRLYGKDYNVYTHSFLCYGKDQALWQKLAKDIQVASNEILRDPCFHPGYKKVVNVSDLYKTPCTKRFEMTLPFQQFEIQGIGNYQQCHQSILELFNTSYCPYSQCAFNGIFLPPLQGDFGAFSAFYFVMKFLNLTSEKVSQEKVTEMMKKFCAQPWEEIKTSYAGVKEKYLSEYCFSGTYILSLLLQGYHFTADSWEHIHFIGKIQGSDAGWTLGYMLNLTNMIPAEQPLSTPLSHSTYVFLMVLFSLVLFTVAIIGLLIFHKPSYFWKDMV
Experimental: (§1) FACS were used to determine binding of the antibodies to cell lines expressing CD39 naturally (SK-MEL-28) or recombinantly (CHOK1-hCD39, CHOK1-cynoCD39, and CHOK1-mCD39), or with cells lacking CD39 expression (CHOK1-blank) as a negative control.
Similarly, human CD39 expressing cells SK-MEL-5, SK-MEL-28 or MOLP-8, were incubated with a gradient concentration of anti-CD39 antibodies for 30 minutes at 4° C. Cells were washed 3 times using FACS buffer and next incubated with fluorescence labelled secondary antibody (goat-anti-mouse IgG or goat anti-human IgG) for 30 minutes at 4° C. Cells were washed 3 times and then re-suspended in FACS buffer and analyzed by flow cytometry analysis on BD Celesta. Data plotted and analyzed using GraphPad Prism 8.02.

[2] = biological target: T1, human CD39 (full length, on cells); experiment: cell-based or functional assay
[3] = biological target: T1, human CD39 (full length, on cells); experiment: FACS, CHOK1-hCD39 cells
Description: as §1
(§2) CHOK1-hCD39, CHOK1-cCD39, CHOK1-mCD39 and CHOK1-blank cells were maintained in culture medium according to ATCC procedure. Cells were collected and re-suspended in blocking buffer at a density of 3×10⁶ cells/ml. Cells were transferred to 96 well FACS plates at 100 μl/well (3×10⁵ cells/well), the plates were centrifuged and washed twice with FACS buffer (PBS, 1% FBS, 0.05% Tween-20). 4-folds serial dilution of anti-CD39 antibodies were prepared in FACS buffer starting from 30 μg/ml. Reference antibody 9-8B and mouse/human control IgG were used as positive and negative controls, respectively. Cells were re-suspended in 100 μL/well diluted antibodies, and the plates were incubated at 4° C. for 60 min. […] The plates were washed with FACS buffer, and cells were re-suspended in 100 μL/well of PBS. Cells were then analyzed with FACSVerse™ and mean fluorescence intensity were determined. Full binding curves were generated on the CD39 expressing cells by testing a range of antibody concentrations. Apparent affinity was determined for each antibody using Prism software.

[4] = biological target: T2, mouse CD39 (full length, on CHOK1-mCD39 cells) (mouse, UniProt P55772 1-510); experiment: FACS, CHOK1-mCD39 cells
T2 construct: whole, on cells
T2 sequence (looked up): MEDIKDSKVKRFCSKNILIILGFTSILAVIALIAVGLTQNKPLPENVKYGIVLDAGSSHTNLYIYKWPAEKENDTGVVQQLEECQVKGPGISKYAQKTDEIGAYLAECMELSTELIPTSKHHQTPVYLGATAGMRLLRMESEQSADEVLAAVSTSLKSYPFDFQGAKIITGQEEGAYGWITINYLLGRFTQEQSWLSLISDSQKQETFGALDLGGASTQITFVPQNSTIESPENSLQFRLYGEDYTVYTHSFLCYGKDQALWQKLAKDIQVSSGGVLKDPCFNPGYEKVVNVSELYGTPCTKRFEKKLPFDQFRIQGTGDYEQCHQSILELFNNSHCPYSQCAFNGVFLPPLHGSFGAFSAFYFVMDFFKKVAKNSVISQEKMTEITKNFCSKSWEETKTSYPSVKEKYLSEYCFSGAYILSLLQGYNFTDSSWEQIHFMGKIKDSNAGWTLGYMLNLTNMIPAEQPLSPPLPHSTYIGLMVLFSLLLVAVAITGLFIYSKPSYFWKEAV
Description: as §1, §2

[5] = biological target: T3, cynomolgus CD39 (full length, on CHOK1-cynoCD39 cells) (cynomolgus monkey, UniProt A0A7N9DGH8 1-510); experiment: FACS, CHOK1-cynoCD39 cells
T3 construct: whole, on cells; also called cCD39
T3 sequence: T1 sequence with V47I, F94Y, V221I, I230T, I329V, K368N, A391S, F489V, T490I
Description: as §1, §2

[6] = biological target: T1, human CD39 (full length, on cells); experiment: FACS competition on CHOK1-hCD39; competitor 9-8B-Alexa488
Experimental: (§3) Anti-CD39 antibodies were labeled using Alex488 labeling kit and were diluted in a series of concentrations, before mixing with CHOK1-hCD39 cells to test binding EC₅₀using FACS. The non-labeled antibodies were tested for their blocking efficacy to the labelled ones. Briefly, mononuclear CHOK1-hCD39 cells were prepared to 2×10⁶/ml and plated into 96 well at 50 μl/well, then mixed with antibodies gradients to final volume at 100 μl, and then equal volume of Alex488 label antibodies were added at two folds EC80 concentration. 96 well plates were incubated at 4° C. for 1 hour, and spun down and washed 3 times with 200 μl FACS buffer. The FACS analysis was performed on FACScelesta machine and data was analyzed by Flowjo software. The blocking percentages were calculated and those having above 80% competition rate were allocated into one epitope group, compared with the non-competing well (Alex488 labeled antibody only).
(§4) Based on the competition results, the 4 anti-CD39 hybridoma antibodies (mAb14, mAb19, mAb21, mAb23) can be grouped into 4 different epitope groups, as shown in Table 11.

[7] = biological target: T1, human CD39 (full length, on cells); experiment: FACS competition on CHOK1-hCD39; competitor mAb14-Alexa488
Experimental: as §3, §4

[8] = biological target: T1, human CD39 (full length, on cells); experiment: FACS competition on CHOK1-hCD39; competitor mAb19-Alexa488
Experimental: as §3, §4

[9] = biological target: T1, human CD39 (full length, on cells); experiment: FACS competition on CHOK1-hCD39; competitor mAb21-Alexa488
Experimental: as §3, §4

[10] = biological target: T1, human CD39 (full length, on cells); experiment: FACS competition on CHOK1-hCD39; competitor mAb23-Alexa488
Experimental: as §3, §4

EC50 [1]: 1.6 nM | SK-MEL-28 cell based ATPase inhibition % at 10 nM [2]: 75% | EC50 [3]: 1.7 nM | EC50 [5]: 2.3 nM | blocking percentage [6]: 98% | blocking percentage [7]: 86% | blocking percentage [8]: 98% | blocking percentage [9]: 93% | blocking percentage [10]: 100%
B1: mAb23 (antibody, V domains shown)
VH: EVQLQQSGAELLRPGASVKLSCTASGYNLKDTFLHWVKQRPEQGLEWIGRIDPANGNIKYDPKFQGKATLTADTSSNTAYLQLISLTSEDTAVYYCANSPYYYGSGYRIFDVWGAGTTVTVSS
VL: QIVLTQSPAIMSASPGEKVTITCSAFSSVNYMHWYQQKPGTSPKLLIYTTSNLASGVPTRFSGSGSGTSYSLTISRMEAEDAATYYCQQRSTYPFTFGSGTKLEIQ
notes: mouse hybridoma antibody
binding result [4]: no binding (tested: 30 µg/ml highest concentration)

EC50 [1]: 46 nM | SK-MEL-28 cell based ATPase inhibition % at 10 nM [2]: 65% | EC50 [3]: 4.5 nM | EC50 [5]: 5.8 nM | blocking percentage [6]: 6% | blocking percentage [7]: 23% | blocking percentage [8]: 96% | blocking percentage [9]: 83% | blocking percentage [10]: 91%
B2: mAb19 (antibody, V domains shown)
VH: EVKLEKSGGGLVQPGGSMKLSCVASGFTFSNYWMNWVRQSPEKGLEWVAQIRLNPDNYATHYAESVKGRFTISRDDYKNSVYLQMSSLRAEDSGIYYCTQHGSRGFAYWGQGTLVTVS
VL: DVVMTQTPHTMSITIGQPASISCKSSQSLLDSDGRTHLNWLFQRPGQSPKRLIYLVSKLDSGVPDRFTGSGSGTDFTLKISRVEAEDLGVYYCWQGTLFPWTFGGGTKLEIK
notes: mouse hybridoma antibody
binding result [4]: no binding (tested: 30 µg/ml highest concentration)

EC50 [1]: 90 nM | SK-MEL-28 cell based ATPase inhibition % at 10 nM [2]: 70% | EC50 [3]: 6.7 nM | EC50 [5]: 11 nM | blocking percentage [6]: 20% | blocking percentage [7]: 24% | blocking percentage [8]: 98% | blocking percentage [9]: 90% | blocking percentage [10]: 97%
B3: mAb21 (antibody, V domains shown)
VH: EVKLEKSGGGLVQPGGSMKLSCVASGFTFSNYWMNWVRQSPEKGLEWVAQIRLNPDNYATHFAESVKGRFTISRDDSKNSVYLQMNSLRAEDTGIYYCTEHGTRGFAYWGQGTLVTVSE
VL: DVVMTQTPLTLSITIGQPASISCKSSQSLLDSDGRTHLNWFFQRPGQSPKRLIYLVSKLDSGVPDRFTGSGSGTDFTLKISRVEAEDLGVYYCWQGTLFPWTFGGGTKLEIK
notes: mouse hybridoma antibody
binding result [4]: no binding (tested: 30 µg/ml highest concentration)
